# Laboratory results as given in article PMC7337405, “A secreted LysM effector protects fungal hyphae through chitin-dependent homodimer polymerization” (PLoS Pathogens, 2020).
# What was measured:
# Mg1LysM = target: T1, Mg1LysM (Zymoseptoria tritici, UniProt F9XHX3); assay: X-ray crystal structure of the complex ([…] Å); assay type: binding; conditions: P. pastoris-produced protein; ligand co-purified from host cell wall; site between two protomers of neighbouring homodimers
# T1 construct: mature single-LysM effector, signal peptide absent; ITC: E. coli Origami pET-SUMO, His-SUMO cut off by ULP1; crystal: P. pastoris GS115, His-FLAG tag; ligand-independent homodimer; chitin site formed by two protomers of neighbouring homodimers
# (GlcNAc)6 = assay: ITC
Molecule,X-ray crystal structure of the complex (2.41 Å) (Mg1LysM),other: stoichiometry N ((GlcNAc)6)
CC(=O)N[C@H]1[C@H](O[C@H]2[C@H](O)[C@@H](NC(C)=O)C(O)O[C@@H]2CO)O[C@H](CO)[C@@H](O[C@@H]2O[C@H](CO)[C@@H](O)[C@H](O)[C@H]2NC(C)=O)[C@@H]1O (stereo partly shown) [chitin trimer],well-defined electron density for a single chitin trimer bound to one monomer of the a.u.,–
"Mg1LysM (Zymoseptoria tritici LysM effector), wild type, produced in E. coli (from UniProt A0A1X7S147) D54A",–,0.902
"Mg1LysM (Zymoseptoria tritici LysM effector), wild type, produced in E. coli (from UniProt A0A1X7S147) K31A",–,0.97
"Mg1LysM (Zymoseptoria tritici LysM effector), wild type, produced in E. coli (from UniProt A0A1X7S147) T28R",–,0.956
